Data taken from the DeepSol protein solubility set.

Assay: soluble on expression in E. coli; label from the status in PepcDB or PDB records

Sequence	soluble on expression in E. coli
MKLDKIDNKNRRIRKKLFLGEFAILGFEISCETDINDFDRYDAFVDDFIDYIDTLGLCFGGGGLELFEGFLCSTERYGSATEEQKAQVVAWLEARPEVKSAKAGDLLDANYL	soluble
MNNSKTNQQMNTSMGYPLTVYDECNKFQLIVPTLDANIMLWCIGQLSLLNDSNGCKHLFWQPNDKSNVRILLNNYDYGHLFKYLQCQRKCSVYIGEGTLKKYNLTISTSFDNFLDLTPSEEKESLCREDAHEDPVSPKAGSEEEISPNSTSNVVVSRECLDNFMKQLLKLEESLNKLELEQKVTNKEPNHRISGTIDIPEDRSELVNFFTELKTVKQLEDVFQRYHDYERLSQECDSKTEIASDHSKKETKIEVEPPNERSLQITMNQRDNSLYFQLFNNTNSVLAGNCKLKFTDAGDKPTTQIIDMGPHEIGIKEYKEYRYFPYALDLEAGSTIEIENQYGEVIFLGKYGSSPMINLRPPSRLSAESLQASQEPFYSFQIDTLPELDDSSIISTSISLSYDGDDNEKALTWEEL	soluble
METTVMPAAASVQKQQGLNQVVINKVQRMIESRQGGVMDTINRLLSEGRIAQDFIAPIGVSQRSKERPVISFKAEGRVQMAMPEGNFNLHGNAISQISEKMGIPAKYLRELSAGDVWQKQLCATILNEHSGWTERTRVLIRAVGMEVRGVLSDSYRRLNSVDILTAFIREAGGQGAVVSDAYMNDTKVWCETILPTPIEIPTRKNGTVIIFAGARFSTSDYGNGSVEMRSFLLNGACLNGMVRESVMRQIHLGGRLPESLSLSQKTYELDTQTTVSAVSDLTKGLYSKDTIMQKAIEIQGASEIDVDFDKELKNLVQKGALLKNEGREVEKLLMNNNPDDGVTGGATLWKLTQGITAFAREQQPERCRELHEISGQLMNRVKIN	not soluble
ATQSPGDSRRLSIQRAIQSLVHAAQCRNANCSLPSCQKMKRVVQHTKGCKRKTNGGCPICKQLIALAAYHAKHCQENKCPVPFCLNIKQKLRQQQLQHRLQQAQMLRRRMASMQ	soluble
MGSSHHHHHHSSGLVPRGSHMKKRQLGTSDLHVSELGFGCMSLGTDETKARRIMDEVLELGINYLDTADLYNQGLNEQFVGKALKGRRQDIILATKVGNRFEQGKEGWWWDPSKAYIKEAVKDSLRRLQTDYIDLYQLHGGTIDDPIDETIEAFEELKQEGVIRYYGISSIRPNVIKEYLKRSNIVSIMMQYSILDRRPEEWFPLIQEHGVSVVVRGPVARGLLSRRPLPEGEGYLNYRYDELKLLRESLPTDRPLHELALQYCLAHDVVATVAAGASSIDQVKANVQAVEATPLTAEERQHIQKLAKAAVYEQHRE	soluble
GPQDPYEINLMEELTLKGVTQYYAYVTERQKVHCLNTLFSRLQINQSIIFCNSSQRVELLAKKISQLGYSCFYIHAKMRQEHRNRVFHDFRNGLCRNLVCTDLFTRGIDIQAVNVVINFDFPKLAETYLHRIGRSGRFGHLGLAINLITYDDRFNLKSIEEQLGTEIKPIPSNIDKSLYVAEYHSEPVEDEKP	soluble
KSIHDAGQRVQIYFSDAAGLVAGRTTIRYQGLEVGMVRDINLSEDLGSIYVDADIYPEATKLLNDKTRFWLVKPTASLTGVSGLDALVSGNYISIQPGDGQEFETTFHALDSAPTDLRVSQGLNIKLKSRDLGGVSIGSQIVYKKIPIGAVYSYQLDEDAKSITIQANIQEQYRHIINDRSRFWNVSGIGASIGFEGVDVRLESMSALLGGAIAVDSPDDGEPVEENTEFRLYKDLKTAGRGIAIKIALPDDNKVSSEGAPIMYRGIEIGQVTDLSLSEGREVILASAAIQPAFSDMLTTGTRFVLEEAKVSLSGVENIANLVRGNFLTIVPGDGERSRRFTAIRKNVFNQQQEKSIAIRLISDNSFGLDSGAN	not soluble
MGHHHHHHSHMKAFSPVRSVRKNSLSDHSLGISRSKTPVDDPMSLLYNMNDCYSKLKELVPSIPQNKKVSKMEILQHVIDYILDLQIALDSHPTIVSLHHQRPGQNQASRTPLTTLNTDISILSLQASEFPSELMSNDSKALCG	soluble
MNILRNIILFGWMAIACTAFAQDRNADKVERPNTKKINFGIKAGFNSSMFMVSELKIKDVTIDEVQNNYKIGYFGAIFMRFNIKKHFIQPEASYNVSKGEITFDKLGSQHPAIEPDYASVQSVLHSIDFPILYGYNVVKKGPYGMSIFAGPKLRYLWGKQNEITFTNFDQKGIHEKLYPLNVSVVIGVGVNISRIFFDFRYEQGIGNISKSIVYDNINSDGSTGVSPIIFRRRDSALSFSFGFIL	not soluble
MPTPPVSVLVAQMGEGPAPLYARVKQMIIQQIDNGSWPPHHRVPSESELVNELGFSRMTINRALRELTAEGLLVRMQGVGTFVAEPKGRSALFEVNNIADEIAARGHQHSCQVITLAEEAAGSERALALDMREGQRVFHSLIVHFENGVPVQIEDRYVNAAIAPDYLKQDFTRQTPYAYLSQVAPLTEGEHVVEAILAEPEECTLLQIDRGEPCLLIRRRTWSGRQPVTAARLIHPGSRHRLEGRFSK	not soluble
MNITIVLGDKIPSIKYGGTQRVMWYLGKELNKRGHKVTFIAGKGSSCPFAKVIELDPSVNLNTQIPTDADIVHFNIPVPEGITKPHLLTIHGNGIPANADRNIVFVSRNHAQRLGSESFVYNGLDWDDYGPANLTLSRKNYHFLGKAAWKVKNIKGAIAVVQSIKNAQLDVLGGYRLNLKMGFRFTWNPRIHFHGMVDDSKKKVIIEQSKGLIFPVTWHEPFGLAITESLYFGAPVFGTPYGALPELVSPEVGFLTAHGQEMAEHIQSAQYSPKVCHEYARDLFNSSVMAEAYLKKYETVLNGEPLNKEVPHIIDIARRLPWD	not soluble
MPKLSAFYYQVLEDFGYIYDSSITVPPVPVPVWPYTLDYKISHECKSGTCPSRTFPGVWEVPLNTHYVEGYEGGHCPYLDQCVLHNLDEEEVFQWLQEDFSRYYEQNKAPYMMPFHTNWFQTKPLENGLHKFLDWALELLEHHHHHH	not soluble
MADNGNEEDRNGYIINRTRFAADFHNRNEDLSEWEEMRGIEWDLILHSDGGQLYTQLVTRSRLQYEIPCKFLLEAQYGQVKVGENFDVTVSSRNHTFGMRIDQPADNGAIKITAYIDF	not soluble
MADDGLGDVPMETESMPQYTISHVIEAHKSDTKALAVTQGGCLISGGRDETVKFWAKKGKQYTKTHAFEQPKGITVNSIAYAELADGWRLFVGRRDGTIAVFGPSQAEPYAIFNEHKQNVCCLHINEKATHMLSGSWDSNVIIWPITELNSSSFTTIVCPGHTLSVWALASFPDLPNTYLSASADKTIRMWFGDTTLSVFKGHTDVVRALVVLSSSHFLSAGNDGHIIHWDVASASILRKFATQAHEFIYSMTLSDSHILTTGEDGTLEFWAIDGGKDGNLAIVSEAVIQLPTTNTWDAKVLLNSDIAVAGSDGRIYIMTTDKNRKADDDILDAFDAEVVAKLTAKTERMKQEEHETVTIKVDIDDRPTQLNLKYKKGTDPGLCAQEFLSENNLPIHYLEEITRFIKDRIPEARAFDLKSGKKVIVDGKEYDYALGVNFGKGEPDKQMPFNVNESPQFAAQRFVERHQLPVSVIPSLAGMISQEMDKLSKGAASAQSGYEDPFTGPGRYVPQGSSNSGGHGADPFTGSGRYVPQASNSSGFDTGFSGDPLTGDGGYRASAPENTGSHAVPLSSLPQNKKKPRGPLVPVPDFYIIGLAGKGEKAIAKLKELNEKQDAFQLNPDQINGLEELFVLPTSSNYSSEVTQSAFEMSLQWPVEHLTPVLDFLRIALTHHSLNSYFCDRERGQELVGRLIAILVSDPADVALKVLVCRCIANAFSHPVGRNLFASTELSTLAPLVVRQVLNEKTVLQMSAATALANWSLALLQQSEQCEQLGPKEDLLRAILNGIESVDSFGYLGEDAIIRLLQALVTVMWGDASVIRLAKNRNIAQIAARLKDAVSNDSGKNIARDIVEMTYAV	not soluble
MSLKAIFITGAGSGMGREGATLFHANGWRVGAIDRNEDGLAALRVQLGAERLWARAVDVTDKAALEGALADFCAGNVGGGLDMMWNNAGIGEGGWFEDVPYEAAVRVVDVNFKAVLTGAYAALPYLKKAPGSLMFSTSSSSGTYGMPRIAVYSATKHAVKGLTEALSVEWQRHGVRVADVLPGLIDTAILTSTRQHSDEGPYTISAEQIRAAAPKKGMFRLMPSSSVAEAAWRAYQHPTRLHWYVPRSIRWIDRLKGVSPEFVRRHIAKSLATLEPKREGHHHHHH	soluble
MAEAGDENLYAAARDIARALGKDPSAAGDILQILSGYGASGNRGGDPRPTPSRGGSNVNFDRALTSLERQISSYIVEDRPIWSDPVDSRTFLDSVDELLAIAGDLRSMAGDKSVAVCQSRADELIQQVMFRLQEEFGFVMDRAPDSFDSDDEFPGEEDNDTSDGVIVARPITDYKIVIEALQSSVIGDLNAIAVRMVAGGFAKECSRVYSSRRREFLEESLSRLHLRGLSMEEVQESPWQDLEDEIDRWIKAVTLIFHVFFPSERLLCDRVFSDLPVSSVTDLSFMEVCRGTTTQLLNFADAIALGSRLPERLFKVVDLYEAMQDLIPKMETLFSDRYCSPLRHEALAIHKRLGEAIRGIFMELENLIRRDPPKTAFPGGGIHPITRYVMNYLRAACKSRQSLEQILDQTGNETGSDTRPLSVQIIWVLELLESNLEGKKRTYRDPSLCFLFMMNNDKYILDKAKDNELGLVLGEDWIVKHAAKLRQYHSNYRRSSWNQVVGLLRTDGPYPKLVENLRLFKSQFDEVCKVQSQWVVSDGQLREELRSSVAGIVSPAYSNFIRRLKESPEINGRRGEPFIPYTVEDVEFIIKRLFKESSS	soluble
MGSDKIHHHHHHMTRTTLEAGVTRRDVLKVAGLTGLGAALYASGLERWLPRALTAEATNQVPFYGKYQAGILTPPQNHVQIVAFDVQTTRRDELIDLLKRWTRACARLTAGLPLGDSDSLYVPPEDTGEAEGLSASHLTFTFGCGHGLFADDRFEIGHKRPNLLRELPAFDLDQLDPKWAGGDLVVQICADDQQVVFHALRNLTRIGRGIVKIRWTQTGFQRSKAADATGGTPRNLFGFKDGTGNPDVSQPAIRNKHLFYQWQDGSPWMTNGSFLVVRRIQMHLEVWDRTILKEQERTFGRDRASGAPLGSKDEFASVTPSKRTARGEASLPKDSHTAVAHGSGEAQLLRRSYSYQAGINETTGALDAGLLFLSYQRSPEQFITIQRRLAASDRLNEYITHRGSALFACFGGIQKGGYIGDALFA	not soluble
LKEDKEKYPIFVFIHKDKVTISIDTTGDALHKRGYREKANKAPIRETLAAGLIYLTPWKAGRVLVDPMCGSGTILIEAAMIGINMAPGLNREFISEKWRTLDKKIWWDVRKDAFNKIDNESKFKIYGYDIDEESIDIARENAEIAGVDEYIEFNVGDATQFKSEDEFGFIITNPPYGERLEDKDSVKQLYKELGYAFRKLKNWSYYLITSYEDFEYEFGQKADKKRKLYNGMLKTNFFQYPGPKPPRNNK	not soluble
MGHHHHHHSHMFEFKHIKAFDRAFADNPGPMVVFATPGMLHAGQSLQIFRKWAGNEKNMVIMPGYCVQGTVGHKILSGQRKLEMEGRQVLEVKMQVEYMSFSAHADAKGIMQLVGQAEPESVLLVHGEAKKMEFLKQKIEQELRVNCYMPANGETVTLPTSPSIPVGISLGLLKREMAQGLLPEAKKPRLLHGTLIMKDSNFRLVSSEQALKELGLAEHQLRFTCRVHLHDTRKEQETALRVYSHLKSVLKDHCVQHLPDGSVTVESVLLQAAAPSEDPGTKVLLVSWTYQDEELGSFSHLC	not soluble
MGSDKIHHHHHHENLYFQGMNTIDIAKSYITAIQTGDHATLGSIISPDVIWHQPGNHQFSGTHRGMAVVGPMLGKMMEVSNGTFAISRADDYMASGDWVAITLEFSGQANGVTLKQAGVDLLRIEDGKIVEVRLFSADQTQEDAFWGR	soluble
MSVEKIPGYTYGETENRAPFNLEDLKLLKEAVMFTAEDEEYIQKAGEVLEDQVEEILDTWYGFVGSHPHLLYYFTSPDGTPNEKYLAAVRKRFSRWILDTSNRSYDQAWLDYQYEIGLRHHRTKKNQTDNVESVPNIGYRYLVAFIYPITATMKPFLARKGHTPEEVEKMYQAWFKATTLQVALWSYPYVKYGDF	soluble
